Assay results published in patent publication US20150344570A1 (published 2015).
Positions count from the first letter of the chain named. Numbers in names are those of the source.

T1: FcgRIIaR (human, UniProt P12318 34-217)
T1 construct: extracellular domain; Allotype R131; also called FcγRIIa R; FcgRIIa type R; not shown: His tag attached to the C terminus
T1 sequence (looked up): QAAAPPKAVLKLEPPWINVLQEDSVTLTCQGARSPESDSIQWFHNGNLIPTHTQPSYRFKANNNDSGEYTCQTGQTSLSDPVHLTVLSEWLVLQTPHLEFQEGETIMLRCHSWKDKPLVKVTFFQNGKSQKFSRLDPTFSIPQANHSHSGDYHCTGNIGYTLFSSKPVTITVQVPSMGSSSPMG

T2: FcgRIIaH (human, UniProt P12318 34-217)
T2 construct: extracellular domain; Allotype H131; also called FcγRIIa H; FcgRIIa type H; not shown: His tag attached to the C terminus
T2 sequence (looked up): T1 sequence (looked up) with R134H

T3: FcgRIIb (human, UniProt P31994 43-217)
T3 construct: extracellular domain; also called FcγRIIb; CD32B; not shown: His tag attached to the C terminus
T3 sequence (looked up): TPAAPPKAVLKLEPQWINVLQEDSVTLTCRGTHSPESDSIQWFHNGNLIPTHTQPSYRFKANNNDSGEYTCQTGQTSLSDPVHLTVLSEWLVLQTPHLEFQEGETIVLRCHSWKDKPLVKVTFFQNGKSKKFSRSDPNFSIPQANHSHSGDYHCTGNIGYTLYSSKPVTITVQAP

B1: GpH7-A53/GpH7-B78/GpL16-k0 (antibody, human IgG1, kappa)
heavy 1: QVQLVQSGAEVKKPGASVTVSCKASGYTFTDYEMHWIRQPPGEGLEWIGAIDPKTGDTAYSESFQDRVTLTADKSTSTAYMELSSLTSEDTAVYYCTRFYSYTYWGQGTLVTVSSASTKGPSVFPLAPSSKSTSGGTAALGCLVKDYFPEPVTVSWNSGALTSGVHTFPAVLQSSGLYSLSSVVTVPSSSLGTQTYICNVNHKPSNTKVDKKVEPKSCDKTHTCPPCPAPELLGGPDVFLFPPKPKDTLMISRTPEVTCVVVDVSHEDPEVKFNWYVDGVEVHNAKTKPREEQYNSTYRVVSVLTVLHQDWLNGKEYKCKVSNKALPAPIEKTISKAKGQPREPQVYTLPPSRKELTKNQVSLTCLVKGFYPSDIAVEWESNGQPENNYKTTPPVLDSDGSFFLYSKLTVDKSRWQQGNVFSCSVMHEALHNRYTQKSLSLSP
heavy 2: B1 heavy 1 with A328L, I330E, K354D, R433H, K437E
light: DIVMTQSPLSLPVTPGEPASISCQASESLVHSNRNTYLHWYLQKPGQSPQLLIYKVSNRFSGVPDRFSGSGSGTDFTLKISRVEAEDVGVYYCSQNTHVPPTFGQGTKVEIERTVAAPSVFIFPPSDEQLKSGTASVVCLLNNFYPREAKVQWKVDNALQSGNSQESVTEQDSKDSTYSLSSTLTLSKADYEKHKVYACEVTHQGLSSPVTKSFNRGEC
notes: S239D in one H chain, S239D/A330L/I332E in the other
B2: GpH7-TA7/GpH7-B78/GpL16-k0 (antibody, human IgG1, kappa)
heavy 1: B1 heavy 1 with L232Y, G234W, D237S, S296A
heavy 2: B1 heavy 1 with A328L, I330E, K354D, R433H, K437E
light: B1 light
notes: L234Y/G236W/S298A in one H chain, S239D/A330L/I332E in the other
B3: H240-Kn120/H240-Hl068/L73-k0 (antibody, human IgG1, kappa)
heavy 1: QDQLVQSGAEVKKPGASVKVSCKASGFNIKDTYIQWVRQAPGQGLEWMGRIDPLRKQTKYREKFEGRVTITADTSTNTAYMELSSLRSEDTAVYYCVRSGREFDYWGQGTLVTVSSASTKGPSVFPLAPSSKSTSGGTAALGCLVKDYFPEPVTVSWNSGALTSGVHTFPAVLQSSGLYSLSSVVTVPSSSLGTQTYICNVNHKPSNTKVDKKVEPKSCDKTHTCPPCPAPEYYWGPMVFLFPPKPKDTLMISRTPEVTCVVVDVSDEDPEVKFNWYVDGVEVHNAKTKPREEQYNATYRVVSVLTVLHQDWLNGKEYKCKVSNKDLPAPIEKTISKAKGQPREPQVCTLPPSRDELTKNQVSLWCLVKGFYPSDIAVEWESNGQPENNYKTTPPVLDSDGSFFLYSKLTVDKSRWQQGNVFSCSVMHEALHNHYTQKSLSLSP
heavy 2: QDQLVQSGAEVKKPGASVKVSCKASGFNIKDTYIQWVRQAPGQGLEWMGRIDPLRKQTKYREKFEGRVTITADTSTNTAYMELSSLRSEDTAVYYCVRSGREFDYWGQGTLVTVSSASTKGPSVFPLAPSSKSTSGGTAALGCLVKDYFPEPVTVSWNSGALTSGVHTFPAVLQSSGLYSLSSVVTVPSSSLGTQTYICNVNHKPSNTKVDKKVEPKSCDKTHTCPPCPAPELLGGPSVFLFPPKPKDTLMISRTPEVTCVVVDVSHEEPEVKFNWYVDGVEVHNAKTKPREEQYNSTYRVVSVLTVLHQDWLNGKEYKCKVSNDALPKPIEETISKAKGQPREPQVYTLPPSRCELTKNQVSLSCAVKGFYPSDIAVEWESNGQPENNYKTTPPVLDSDGSFFLVSKLTVDKSRWQQGNVFSCSVMHEALHNHYTQKSLSLSP
light: DIQMTQSPSSLSASVGDRVTITCRASQDIHKYIAWYQQKPGQAPRLLIQYTSTLQPGVPSRFSGSGSGTDYTFTISSLQPEDIATYYCLQYEQLRTFGGGTKVEIKRTVAAPSVFIFPPSDEQLKSGTASVVCLLNNFYPREAKVQWKVDNALQSGNSQESVTEQDSKDSTYSLSSTLTLSKADYEKHKVYACEVTHQGLSSPVTKSFNRGEC
notes: Heterodimerized (knobs-into-holes) anti-epiregulin IgG1 antibody
B4: H240-Kn120/H240-Hl170/L73-k0 (antibody, human IgG1, kappa)
heavy 1: B3 heavy 1
heavy 2: B3 heavy 2 with L327A
light: B3 light
notes: Heterodimerized anti-epiregulin IgG1 antibody; L328A in H240-Hl068
B5: H240-Kn120/H240-Hl150/L73-k0 (antibody, human IgG1, kappa)
heavy 1: B3 heavy 1
heavy 2: B3 heavy 2 with I331T
light: B3 light
notes: Heterodimerized anti-epiregulin IgG1 antibody; I332T in H240-Hl068
B6: GpH7-A5/GpH7-HA15/GpL16-k0 (antibody, human IgG1, kappa)
heavy 1: not shown
heavy 2: B1 heavy 1 with D237S, P327R, A328L, K354D, R433H, K437E
light: B1 light
notes: Anti-glypican-3 IgG1 heterodimer; A330L and P329R in H2
B7: GpH7-A48/GpH7-B3-15-02A/GpL16-k0 (antibody, human IgG1, kappa)
heavy 1: B1 heavy 1 with D237S, P327R
heavy 2: not shown
light: B1 light
notes: Anti-glypican-3 IgG1 heterodimer; P329R in H1, S298A in H2
B8: GpH7-A48/GpH7-B3-01-15Y/GpL16-k0 (antibody, human IgG1, kappa)
heavy 1: B1 heavy 1 with D237S, P327R
heavy 2: not shown
light: B1 light
notes: Anti-glypican-3 IgG1 heterodimer; P329R in H1, L234Y in H2
B9: GpH7-A48/GpH7-B3-03-20W/GpL16-k0 (antibody, human IgG1, kappa)
heavy 1: B1 heavy 1 with D237S, P327R
heavy 2: not shown
light: B1 light
notes: Anti-glypican-3 IgG1 heterodimer; P329R in H1, G236W in H2
B10: GpH7-A5/GpH7-HA18/GpL16-k0 (antibody, human IgG1, kappa)
heavy 1: not shown
heavy 2: B1 heavy 1 with D237S, P327R, I330E, K354D, R433H, K437E
light: B1 light
notes: Anti-glypican-3 IgG1 heterodimer; I332E and P329R in H2
B11: GpH7-A48/GpH7-B3-22-10E/GpL16-k0 (antibody, human IgG1, kappa)
heavy 1: B1 heavy 1 with D237S, P327R
heavy 2: not shown
light: B1 light
notes: Anti-glypican-3 IgG1 heterodimer; P329R in H1, I332E in H2
B12: GpH7-A48/GpH7-B3-20-08L/GpL16-k0 (antibody, human IgG1, kappa)
heavy 1: B1 heavy 1 with D237S, P327R
heavy 2: not shown
light: B1 light
notes: Anti-glypican-3 IgG1 heterodimer; P329R in H1, A330L in H2
B13: GpH7-A48/GpH7-B3-06-09D/GpL16-k0 (antibody, human IgG1, kappa)
heavy 1: B1 heavy 1 with D237S, P327R
heavy 2: not shown
light: B1 light
notes: Anti-glypican-3 IgG1 heterodimer; P329R in H1, S239D in H2

Target: FcγRIIIa F (human, UniProt P08637 17-208)
Test: SPR (Biacore), KD

Chain of FcγRIIIa F (P08637 17-208): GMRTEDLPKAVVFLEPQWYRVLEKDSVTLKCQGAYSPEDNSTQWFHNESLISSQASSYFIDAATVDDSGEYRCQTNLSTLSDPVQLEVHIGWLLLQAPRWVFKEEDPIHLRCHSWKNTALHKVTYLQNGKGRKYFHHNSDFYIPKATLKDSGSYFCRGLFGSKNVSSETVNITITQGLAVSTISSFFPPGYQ

fold decrease of FcγRIIIa-binding activity against GpH7-A57/GpH7-B78/GpL16-k0 [times] | fold FcγRIIIa binding against GpH7-A5/GpH7-B78/GpL16-k0 [times] | Binder
1.8 |  | B1
 | ≥ 10 | B2

Target: T4, FcgRIa (human, UniProt P12314 16-292)
T4 construct: extracellular domain; Soluble extracellular domain expressed in FreeStyle293 cells; also called FcγRIa; FcγRI; not shown: His tag attached to the C terminus
Test: SPR (Biacore); KD of H240-Kn120/H240-Hl068/L73-k0 divided by KD of the sample
Description: (§1) Analysis of interaction between objective antibody and the FcγR was carried out using Biacore T100 (GE Healthcare), Biacore T200, Biacore A100, and Biacore 4000. HBS-EP+ (GE Healthcare) was used as the running buffer, and the measurement temperature was set to 25° C. Chips produced by immobilizing the antigen peptide by the amine coupling method to a Series S sensor Chip CM5 (GE Healthcare), chips produced by allowing preliminarily biotinylated antigen peptides to interact with and immobilize onto a Series S Sensor Chip SA (certified) (GE Healthcare), chips produced by immobilizing Protein L (ACTIGEN, BioVision) to Series S Sencor Chip CM5 (GE Healthcare), or chips produced by immobilizing Protein A/G (Thermo Scientific) to Series S Sencor Chip CM5 (GE Healthcare) were used. Antibodies of interest were captured onto these chips, and allowed to interact to each FcγR diluted with running buffer. To regenerate and repeatedly use the chip, the antibodies captured onto the chip were washed off by reacting 10 mM glycine-HCl, pH 1.5.

T4 sequence (P12314 16-292): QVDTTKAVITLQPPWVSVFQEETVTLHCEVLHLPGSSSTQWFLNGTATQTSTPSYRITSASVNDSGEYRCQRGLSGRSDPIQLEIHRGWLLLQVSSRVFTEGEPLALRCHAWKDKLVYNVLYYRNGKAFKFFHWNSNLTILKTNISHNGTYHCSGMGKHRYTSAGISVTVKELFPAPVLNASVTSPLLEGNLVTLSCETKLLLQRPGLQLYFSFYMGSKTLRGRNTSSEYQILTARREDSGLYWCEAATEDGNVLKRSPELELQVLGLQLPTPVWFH

relative KD | Binder
1 | B3
0.8 | B4
0.4 | B5

Target: T1, FcgRIIaR
Test: as above
Description: as §1

relative KD | Binder
1 | B3
2.3 | B4
1 | B5

Target: T2, FcgRIIaH
Test: as above
Description: as §1

relative KD | Binder
1 | B3
2.3 | B4
1.2 | B5

Target: T3, FcgRIIb
Test: as above
Description: as §1

relative KD | Binder
1 | B3
2.2 | B4
1.5 | B5

Target: T5, FcgRIIIaF (human, UniProt P08637 17-208)
T5 construct: extracellular domain; Allotype F158; also called FcγRIIIa F; not shown: His tag attached to the C terminus
Test: as above
Description: as §1

T5 sequence (P08637 17-208): as the sequence (P08637 17-208) above

relative KD | Binder
1 | B3
0.6 | B4
0.7 | B5

Target: T6, FcgRIIIaV (human, UniProt P08637 17-208)
T6 construct: extracellular domain; Allotype V158; also called FcγRIIIa V; not shown: His tag attached to the C terminus
Test: as above
Description: as §1

T6 sequence (P08637 17-208 F176V limits assumed): as the sequence (P08637 17-208) above, with F160V counted along it

relative KD | Binder
1 | B3
0.4 | B4
0.6 | B5

Target: T7, FcγRIIIa (human, UniProt P08637 17-208)
T7 construct: extracellular domain; also called FcgRIIIa; CD16A; not shown: His tag attached to the C terminus
Test: SPR (Biacore), antibody captured on antigen-peptide chip, FcγR as analyte; relative binding amount
Text: The expression vectors for the respective H chains were combined in a way that each of the alterations L234Y, G236W, S298A, S239D, A330L, and I332E is present in the same H chain as P329R or in the different H chain from P329R, and the expression vector GpL16-k0 for the L chain was combined with them. Antibodies of interest were expressed and prepared according to the method described in Reference Example 1. The prepared antibodies were used to assay the FcγRIIIa-binding activity. The result of assessment using P329R on the direction of FcγRIIIa recognition by L234Y, G236W, S298A, S239D, A330L, and I332E is summarized in Table 12.
Analysis of interaction between objective antibody and the FcγR was carried out using Biacore T100 (GE Healthcare). HBS-EP+ (GE Healthcare) was used as the running buffer, and the measurement temperature was set to 25° C. Chips produced by immobilizing the antigen peptide by the amine coupling method to a Series S Sencor Chip CM5 (GE Healthcare), or alternatively, chips produced by allowing preliminarily biotinylated antigen peptides to interact with and immobilize onto a Series S Sensor Chip SA (certified) (GE Healthcare) were used. Antibodies of interest were captured onto an antigen peptide-immobilized chip, and allowed to interact to each FcγR diluted with running buffer. To regenerate and repeatedly use the chip, the antibodies captured on the chip were washed off by reacting 10 mM glycine-HCl, pH 1.5.

T7 sequence (P08637 17-208): as the sequence (P08637 17-208) above

FcγRIIIa BINDING ACTIVITY (relative) | Binder
32 relative, GpH7-A5/GpH7-B3/GpL16-k0 = 100 | B6
47 relative, GpH7-A5/GpH7-B3/GpL16-k0 = 100 | B7
11 relative, GpH7-A5/GpH7-B3/GpL16-k0 = 100 | B8
13 relative, GpH7-A5/GpH7-B3/GpL16-k0 = 100 | B9
35 relative, GpH7-A5/GpH7-B3/GpL16-k0 = 100 | B10
189 relative, GpH7-A5/GpH7-B3/GpL16-k0 = 100 | B11
60 relative, GpH7-A5/GpH7-B3/GpL16-k0 = 100 | B12
123 relative, GpH7-A5/GpH7-B3/GpL16-k0 = 100 | B13
